# Data from US20130273567A1, “Screening Method for Candidate Agonist Compounds for Adiponectin Receptor I” (priority 2010, published 2013).
# T1: AdipoR1 (Mus musculus, UniProt Q91VH1)
# T1 sequence (Q91VH1 1-375): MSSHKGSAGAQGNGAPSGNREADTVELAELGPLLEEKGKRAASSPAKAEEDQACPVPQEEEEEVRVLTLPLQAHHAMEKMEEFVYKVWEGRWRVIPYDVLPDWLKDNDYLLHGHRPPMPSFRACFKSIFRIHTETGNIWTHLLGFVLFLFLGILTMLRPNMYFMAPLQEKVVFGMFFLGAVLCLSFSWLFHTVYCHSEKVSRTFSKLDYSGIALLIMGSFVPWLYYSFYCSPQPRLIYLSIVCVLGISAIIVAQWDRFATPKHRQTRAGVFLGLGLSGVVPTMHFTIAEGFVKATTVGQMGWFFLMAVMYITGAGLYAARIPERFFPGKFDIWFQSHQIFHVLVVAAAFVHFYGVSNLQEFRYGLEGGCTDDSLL
# T2: mAdipoR1 (Mus musculus, UniProt Q91VH1)
# T2 construct: expressed in transfected cells; host or cells: Xenopus oocytes (stage V to VII) injected with cRNA
# T2 sequence (Q91VH1 1-375): T1 sequence (Q91VH1 1-375)
# B1: adiponectin: recombinant murine full-length adiponectin, internal ligand of adiponectin receptor 1 (protein, UniProt Q60994 1-247, looked up)
# chain: MLLLQALLFLLILPSHAEDDVTTTEELAPALVPPPKGTCAGWMAGIPGHPGHNGTPGRDGRDGTPGEKGEKGDAGLLGPKGETGDVGMTGAEGPRGFPGTPGRKGEPGEAAYVYRSAFSVGLETRVTVPNVPIRFTKIFYNQQNHYDGSTGKFYCNIPGLYYFSYHITVYMKDVKVSLFKKDKAVLFTYDQYQEKNVDQASGSVLLHLEVGDQVWLQVYGDGDHNGLYADNVNDSTFTGFLLYHDTN
# modifications: full-length
# Assays:
# AdipoR1 [1] = target: T1, AdipoR1; experiment: Patch clamp test, whole-cell current of C2C12 myocytes; format: cell-based; parameters: endogenous in cells; host or cells: mouse C2C12 myocytes (differentiated from myoblasts); details: holding potential -60 mV, adiponectin 30 μg/ml 30 sec
# Description: Whole-cell currents were amplified with a patch-clamp amplifier (CEZ-2400; Nihon Kohden) and were digitized with a PowerLab digitizer (AD Instruments). Ringer's solution was used for the extracellular solution. The electrode solution contained 140 mM KCl, 10 mM HEPES, 5 mM EGTA-2K, and 10 mM D-glucose (pH 7.4). The data were low-pass filtered at 2 kHz and were sampled at 20 kHz. Ligands dissolved in Ringer's solution were applied at least twice with a self-made pressure-ejection system and via a two-barreled glass capillary.
# AdipoR1 [2] = target: T1, AdipoR1; experiment: Calcium imaging in skeletal muscle (soleus, fura-2); format: cell-based, mice; parameters: from tissue; host or cells: soleus muscle of control (Adipor1 lox/lox) and muscle-R1KO mice; details: adiponectin 30 μg/ml
# Description: From 8-10 weeks-old mice, soleus muscles were dissected. Preparations were treated with 5 μM fura-2/AM in the presence of 0.1% Chremophore EL (Sigma) for 15 min. Fluorescence images were acquired using an inverted fluorescence microscopy (IX71, Olympus) equipped with a cooled charge-coupled device (CCD) camera (iXon, Andor) and a dry objective lens (10×, NA=0.3, Olympus) through a filter set consisting of a 327-353 nm and 369-391 nm excitation filter, a 409 nm dichroic mirror, and a 515-560 nm fluorescent filter. Ligands were supplied using the superfusing Ringer's solution (150 mM NaCl, 4 mM KCl, 2.0 mM CaCl2, 1.0 mM MgCl2, 30 mM D-glucose, 5 mM HEPES (pH 7.4)).
# PGC-1α (Ppargc1a) = experiment: Ppargc1a mRNA levels in skeletal muscle treated with adiponectin; format: in vivo, mice; details: control littermates; adiponectin 30 μg per 10 g body weight, 10 min
# Description: (§1) Mouse full-length adiponectin was generated as described in the following documents (Nature Med. 8, 1288-1295 (2002); Nature Med. 7, 941-946 (2001); Nature 423, 762-769 (2003)).
# Real-time PCR was carried out according to the method described in the following documents (Nature Med. 13, 332-339 2007); Nature 423, 762-769 (2003); J. Biol. Chem. 281, 8748-8755 (2006)). Total RNA was prepared from cells or tissues by using Trizol (Invitrogen) according to the manufacturer's instructions. Quantification of mRNA was conducted using a real-time PCR method (Nature 423, 762-769 (2003)) with slight modifications. The procedures used for immunoblotting are described in the following documents (Nature Med. 7, 941-946 (2001); J. Biol. Chem. 281, 26602-26614 (2006); J. Biol. Chem. 281, 8748-8755 (2006)). The livers or muscles were freeze-clamped in liquid nitrogen in situ (Nature Med. 7, 941-946 (2001); J. Biol. Chem. 281, 26602-26614 (2006); J. Biol. Chem. 281, 8748-8755 (2006)).
# CaMKI, HDAC5 = experiment: Phosphorylation of CaMKI and HDAC5 in C2C12 myocytes (immunoblotting); format: cell-based, mouse; details: adiponectin 30 μg/ml, 0-20 min
# Description: The mouse C2C12 myoblasts were grown in 90% Dulbecco's modified high glucose Eagle's medium containing 10% (v/v) fetal bovine serum. When the cells reached 80% confluent, the myoblasts were induced to differentiate into myocytes by replacing the medium with a low serum differentiation medium (98% Dulbecco's modified high glucose Eagle's medium, 2.5% (v/v) horse serum). The medium was changed daily. The C2C12 cells were transfected by using Pofectamine 2000 (Invitrogen) and following the manufacturer's instructions.
# mAdipoR1 = target: T2, mAdipoR1; experiment: Xenopus oocytes injected with AdipoR1 cRNA, two-electrode voltage clamp recording; format: cell-based
# Description: Stage V to VII oocytes were treated with 2 mg/ml of collagenase S-1 (Nitta gelatin) in calcium ion-free saline solution (82.5 mM NaCl, 2 mM KCl, 1 mM MgCl2, and 5 mM HEPES, pH 7.5) for 1 to 2 hr at room temperature. The resulting oocytes were then microinjected with 50 ng of cRNA for mAdipoR1. The cRNA was synthesized from linearized modified pSPUTK. The injected oocytes were incubated for 3 days at 18° C. in a bath solution (88 mM NaCl, 1 mM KCl, 0.3 mM Ca(NO3)2, 0.4 mM CaCl2, 0.8 mM MgSO4, 2.4 mM NaHCO3, 15 mM HEPES, pH 7.6) supplemented with 10 μg/ml of penicillin and streptomycin.
# Whole cell currents were recorded with a two-electrode voltage clamp technique. Intracellular glass electrodes were filled with 3M KCl. Signals were amplified with an OC-725C amplifier (Warner Instruments), low-pass filtered at 50 Hz, and digitized at 1 kHz. A control bath solution contained 115 mM NaCl, 2.5 mM KCl, 1.8 mM CaCl2, and 10 mM HEPES. It was titrated to pH 7.2 with NaOH. A calcium ion free solution containing 1.8 mM BaCl2 instead of CaCl2 was used. The inward current was monitored at a holding potential of −80 mV. Calcium ion activated Cl^− current was monitored by applying 500-mscc depolarizing pulses of +100 mV and +50 mV from the holding potential of −80 mV. Adiponectin was supplied to the superfusing bath solution via a silicon tube connected to computer-driven solenoid valves. Data acquisition and analysis were carried out using Digidata 1322A and pCLAMP software.
# CaMKI = CaMKI phosphorylation in skeletal muscle in vivo; parameters: species or system mice; details: adiponectin 30 μg per 10 g body weight, 5 min; via AdipoR1
# Source text: as §1
molecule,measurement,setting,value
B1,whole-cell inward current responses,AdipoR1 [1],observed
same,intracellular calcium ion concentration in soleus muscle (fura-2),AdipoR1 [2]; control mice,increased
same,calcium responses of soleus muscle to adiponectin,AdipoR1 [2]; muscle-R1KO mice,almost completely disappeared
same,expression levels of Ppargc1a in muscle,PGC-1α (Ppargc1a),increased
same,CaMKI phosphorylation,"CaMKI, HDAC5","rapid, robust, and transient increase"
same,HDAC5 phosphorylation,"CaMKI, HDAC5",increased
same,calcium-ion activated Cl- current response,"mAdipoR1; control oocytes (no AdipoR1 cRNA), adiponectin 30 μg/ml",not observed
same,inward current responses,"mAdipoR1; oocytes expressing AdipoR1, holding potential -80 mV, adiponectin 30 μg/ml 30 sec",induced
same,intracellular calcium levels by calcium-ion activated Cl- current,"mAdipoR1; oocytes injected with AdipoR1 complementary RNA, adiponectin 30 μg/ml",increase
same,phosphorylation of CaMKI in skeletal muscle in vivo,CaMKI,significantly increased
